Experiment [1] concerns the target BDBV GP (recombinant, full-length extracellular domain) (BDBV (Bundibugyo ebolavirus)). The experiment is described as follows: ELISA, GP coated on plate, mAb serially diluted. For orientation: An ELISA detects its analyte on a solid surface through an enzyme-linked reagent.
Experiment [2] has as its target BDBV GP on virus (BDBV (Bundibugyo ebolavirus)). Kind of experiment: cell-based or functional assay.

Drawing on patent US20200200749A1, this text covers EC50 and IC50, neutralization of BDBV for two molecules.

B1: EBOV62 (antibody, V domains shown)
VH: EVQLVESGGGLVQPGGSLRLSCAASGFTFSSYWMSWVRQAPGKGLEWVANIKQDGSAKYYVDSVKGRFTISRDNAKNSLYLQMNSLRAEDTAVYYCARDGLLGISDLLYPIYYFDYWGQGTLVTVSS
VL: DIVMTQSPSSLSASVGDRVTITCRASQNIGSYLNWYQQKPGKAPNLLMYAASSLQSGVPSRFSGSGSGTDFTLTITSLQPEDFATYYCQQSYSIPRTFGQGTQLEIK
Consider B1, for which, in experiment [1], the EC50 (commonly the concentration giving half of the maximal effect) came to 508 µg/mL.

B2: BDBV223 (antibody, V domains shown)
VH: QVQLQQWGAGLLKPSETLSLTCAVYGGSFTTTYWNWIRQPPGKGLEWIGEVNYSGNANYNPSLKGRVAISVDTSKNQFSLRLNSVTAADTAIYYCTSRIRSHIAYSWKGDVWGKGTTVTVSS
VL: EIVMTQSPGTLSLSPGERATLSCRASQSVPRNYIGWFQQKPGQAPRLLIYGASSRAAGFPDRFSGSGSGTDFTLTITRLEPEDFAMYYCHQYDRLPYTFGQGTKLEIK
For B2, the IC50, neutralization of BDBV in experiment [2] was 0.005 µg/mL.
